Source: patent US20240132578A1

Tests used:
Assay in all cases: cell-based or functional assay
[1] = biological target: HIV-1 Env of pseudovirus DU422 (HIV-1)
[2] = biological target: HIV-1 Env of pseudovirus THRO.18 (HIV-1)
[3] = biological target: HIV-1 Env of pseudovirus ZM249 (HIV-1)
[4] = biological target: HIV-1 Env of isolate MGRM-C-026 (clade C) (HIV-1)
[5] = biological target: HIV-1 Env of isolate MGRM-D-018 (clade D) (HIV-1)
[6] = biological target: HIV-1 92BR020 Env (HIV-1 isolate 92BR020 (clade B))
[7] = biological target: HIV-1 APV17 Env (HIV-1 isolate APV17 (clade B))
[8] = biological target: HIV-1 JRFL Env (HIV-1 isolate JRFL (clade B))
[9] = biological target: HIV-1 MGRM-AG-005 envelope glycoprotein (Env), clade AG pseudovirus (HIV-1)
[10] = biological target: HIV-1 92UG024 envelope glycoprotein (Env) on virus (HIV-1, clade D, isolate 92UG024)
[11] = biological target: HIV-1 93IN905 envelope glycoprotein (Env) on virus (HIV-1, clade C, isolate 93IN905)
[12] = biological target: HIV-1 CMU02 envelope glycoprotein (Env) on virus (HIV-1, clade AE, isolate CMU02)
[13] = biological target: HIV-1 JRCSF envelope glycoprotein (Env) on virus (HIV-1, clade B, isolate JRCSF) (UniProt P20871)
[14] = biological target: HIV-1 MGRM-D-018 envelope glycoprotein (Env) on virus (HIV-1, clade D, isolate MGRM-D-018)
[15] = biological target: aMLV envelope protein on virus (negative control) (aMLV)
[16] = biological target: HIV-1 92UG024 Env (pseudovirus) (HIV-1)
[17] = biological target: HIV-1 93UG077 Env (pseudovirus) (HIV-1)
[18] = biological target: HIV-1 MGRM-D-018 Env (pseudovirus) (HIV-1)
[19] = biological target: HIV-1 NL43 Env (pseudovirus) (HIV-1)
[20] = biological target: HIV-1 envelope glycoprotein (Env) of isolate 92UG024 (HIV-1)
[21] = biological target: HIV-1 envelope glycoprotein (Env) of isolate CMU02 (HIV-1)
[22] = biological target: HIV-1 envelope glycoprotein (Env) of isolate MGRM-D-018 (HIV-1)
[23] = biological target: HIV-1 JR-CSF Env T319A (HIV-1 (isolate JR-CSF, clade B)) (UniProt P20871)
[24] = biological target: HIV-1 92TH021 envelope glycoprotein (Env) (HIV-1)
[25] = biological target: HIV-1 CMU02 envelope glycoprotein (Env) (HIV-1)
[26] = biological target: HIV-1 JRFL envelope glycoprotein (Env) (HIV-1)
[27] = biological target: HIV-1 MGRM-AG-005 envelope glycoprotein (Env) (HIV-1)
[28] = biological target: HIV-1 JR-CSF Env N241A (HIV-1 (isolate JR-CSF)) (UniProt P20871)
[29] = biological target: HIV-1 Env of isolate JRFL (subtype B), on pseudovirus (HIV-1)
[30] = biological target: HIV-1 Env of isolate MG RM-D-021 (subtype D) (HIV-1)
[31] = biological target: HIV-1 Env of isolate MGRM-Chronic-B-011 (subtype B), on pseudovirus (HIV-1)

Sequence of 5329_C19 (PGT-136) (antibody) (VH): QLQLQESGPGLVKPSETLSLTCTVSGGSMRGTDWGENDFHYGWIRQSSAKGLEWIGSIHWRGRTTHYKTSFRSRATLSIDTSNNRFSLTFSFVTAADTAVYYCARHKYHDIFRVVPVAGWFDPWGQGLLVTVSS
Sequence of 5329_C19 (PGT-136) (antibody) (VL): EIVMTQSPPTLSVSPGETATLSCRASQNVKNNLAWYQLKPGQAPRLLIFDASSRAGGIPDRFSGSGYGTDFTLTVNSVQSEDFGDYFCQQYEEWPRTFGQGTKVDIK
Sequence of 1443_C16 (PG16) (TCN-116) (antibody) (VH): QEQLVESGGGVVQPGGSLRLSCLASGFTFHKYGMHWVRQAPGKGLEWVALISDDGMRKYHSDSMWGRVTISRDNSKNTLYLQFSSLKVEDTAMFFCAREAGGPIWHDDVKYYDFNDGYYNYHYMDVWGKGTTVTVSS
Sequence of 1443_C16 (PG16) (TCN-116) (antibody) (VL): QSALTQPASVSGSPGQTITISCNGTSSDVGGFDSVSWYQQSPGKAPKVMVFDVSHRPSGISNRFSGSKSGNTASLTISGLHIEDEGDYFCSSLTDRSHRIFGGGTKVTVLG

1443_C16 (PG16) (TCN-116) (antibody)
IC50, pseudovirus neutralization (TZM-bl assay) [1]: 0.59 µg/mL
IC50, pseudovirus neutralization (TZM-bl assay) [2]: 2.19 µg/mL
IC50, pseudovirus neutralization (TZM-bl assay) [3]: < 0.01 µg/mL

1496_C09 (PG9) (TCN-109) (antibody)
neutralization IC50 [4]: 0.113 µg/mL
Neutralization IC80 [5]: 0.18 µg/mL
Neutralization IC90 [5]: 0.43 µg/mL
Neutralization IC95 [5]: 1.05 µg/mL
neutralization IC50 [5]: 0.0444 µg/mL

4838_L06 (PGT-121) (antibody)
Neutralization IC80 [6]: 0.0532 µg/mL
Neutralization IC90 [6]: 0.101 µg/mL
Neutralization IC80 [7]: 0.371 µg/mL
Neutralization IC90 [7]: 0.799 µg/mL
Neutralization IC95 [7]: 1.55 µg/mL
Neutralization IC80 [8]: 0.0806 µg/mL
Neutralization IC90 [8]: 0.151 µg/mL
Neutralization IC95 [8]: 0.267 µg/mL

4858_P08 (PGT-123) (antibody)
IC50, pseudovirus neutralization [9]: 0.104 µg/mL
IC80 (pseudovirus neutralization) [9]: 1.28 µg/mL
IC90 (pseudovirus neutralization) [9]: 6.38 µg/mL
IC95 (pseudovirus neutralization) [9]: > 10 µg/mL

4877_D15 (PGT-122) (antibody)
Neutralization IC80 [10]: > 10 µg/mL
Neutralization IC90 [10]: > 10 µg/mL
Neutralization IC95 [10]: > 10 µg/mL
neutralization IC50 [10]: > 10 µg/mL
Neutralization IC80 [11]: 0.0505 µg/mL
Neutralization IC90 [11]: 0.108 µg/mL
Neutralization IC95 [11]: 0.217 µg/mL
neutralization IC50 [11]: 0.0138 µg/mL
Neutralization IC80 [12]: > 10 µg/mL
Neutralization IC90 [12]: > 10 µg/mL
Neutralization IC95 [12]: > 10 µg/mL
neutralization IC50 [12]: > 10 µg/mL
Neutralization IC80 [13]: 0.245 µg/mL
Neutralization IC90 [13]: 0.494 µg/mL
Neutralization IC95 [13]: 0.926 µg/mL
neutralization IC50 [13]: 0.0727 µg/mL
Neutralization IC80 [14]: 0.035 µg/mL
Neutralization IC90 [14]: 0.0674 µg/mL
Neutralization IC95 [14]: 0.125 µg/mL
neutralization IC50 [14]: 0.0115 µg/mL
Neutralization IC80 [15]: > 10 µg/mL
Neutralization IC90 [15]: > 10 µg/mL
Neutralization IC95 [15]: > 10 µg/mL
neutralization IC50 [15]: > 10 µg/mL

5123_A06 (PGT-125) (antibody)
Neutralization by PGT-125, IC50 [16]: > 10 µg/mL
Neutralization by PGT-125, IC80 [16]: > 10 µg/mL
Neutralization by PGT-125, IC90 [16]: > 10 µg/mL
Neutralization by PGT-125, IC95 [16]: > 10 µg/mL
Neutralization by PGT-125, IC50 [17]: 0.0262 µg/mL
Neutralization by PGT-125, IC80 [17]: 0.0926 µg/mL
Neutralization by PGT-125, IC90 [17]: 0.206 µg/mL
Neutralization by PGT-125, IC95 [17]: 0.487 µg/mL
Neutralization by PGT-125, IC50 [18]: 0.0382 µg/mL
Neutralization by PGT-125, IC80 [18]: 0.144 µg/mL
Neutralization by PGT-125, IC90 [18]: 0.339 µg/mL
Neutralization by PGT-125, IC95 [18]: 0.892 µg/mL
Neutralization by PGT-125, IC50 [19]: > 10 µg/mL
Neutralization by PGT-125, IC80 [19]: > 10 µg/mL
Neutralization by PGT-125, IC90 [19]: > 10 µg/mL
Neutralization by PGT-125, IC95 [19]: > 10 µg/mL

5141_B17 (PGT-126) (antibody)
Neutralization IC80 [20]: > 10 µg/mL
Neutralization IC90 [20]: > 10 µg/mL
Neutralization IC95 [20]: > 10 µg/mL
neutralization IC50 [20]: > 10 µg/mL
Neutralization IC80 [21]: > 10 µg/mL
Neutralization IC90 [21]: > 10 µg/mL
Neutralization IC95 [21]: > 10 µg/mL
neutralization IC50 [21]: > 10 µg/mL
Neutralization IC80 [22]: 0.0391 µg/mL
Neutralization IC90 [22]: 0.0918 µg/mL
Neutralization IC95 [22]: 0.205 µg/mL
neutralization IC50 [22]: 0.0093 µg/mL

5147_N06 (PGT-130) (antibody)
Fold IC50 increase relative to wild-type [23]: 1.6 fold

5329_C19 (PGT-136) (antibody)
Neutralization IC80 [24]: > 10 µg/mL
Neutralization IC90 [24]: > 10 µg/mL
Neutralization IC95 [24]: > 10 µg/mL
neutralization IC50 [24]: > 10 µg/mL
Neutralization IC80 [25]: > 10 µg/mL
Neutralization IC90 [25]: > 10 µg/mL
Neutralization IC95 [25]: > 10 µg/mL
neutralization IC50 [25]: > 10 µg/mL
Neutralization IC80 [26]: > 10 µg/mL
Neutralization IC90 [26]: > 10 µg/mL
Neutralization IC95 [26]: > 10 µg/mL
neutralization IC50 [26]: > 10 µg/mL
Neutralization IC80 [27]: > 10 µg/mL
Neutralization IC90 [27]: > 10 µg/mL
Neutralization IC95 [27]: > 10 µg/mL
neutralization IC50 [27]: > 10 µg/mL

5343_B08 (PGT-135) (antibody)
Fold IC50 increase relative to wild-type [28]: 0.1 fold

PGV04 (antibody)
IC50, single-round pseudovirus neutralization [29]: 0.032 µg/mL
IC50 (µg/mL), pseudovirus neutralization [30]: > 50 µg/mL
IC50, single-round pseudovirus neutralization [31]: 0.497 µg/mL
